From the supplement of paper PMC9170038

System: MS2 coat protein
Experiment: apparent KD of MS2 coat protein; designed switch direction (-1 OFF switch, 1 ON switch): -1; higher = weaker reporter binding
How it was run: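 The buffer was Tris-HCl pH 7.5 with KCl, MgCl2, BSA, DTT, tRNA and Tween-20. In it, SNAP-549-labelled MS2 coat protein was titrated in doubling steps from 0.7 or 1.5 nM to 3 µM over chip-bound RNA switches transcribed by stalled E. coli RNA polymerase on Illumina chips. Apparent KD is the per-design median over clusters of curve fits to normalised fluorescence.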

[1] = input ligand: microRNA oligo, concentration not stated
[2] = Eterna round: R95, input ligand: FMN 200 uM
[3] = Eterna round: R95, input ligand: microRNA oligo, concentration not stated
[4] = Eterna round: R95, input ligand: none

In the case of “GCACGGGUGGUAGGAUAUCCUUGCGAUUAGCAAGGAGAAGGACCACAUGAGGAUCACCCAUGUACCUCAAUUAUCCUUCCGUGC [Eli exng1 - 024] (Eterna round: R96, puzzle: Exclusion NG 1)”, the “apparent KD of MS2 coat protein” value (input ligand: FMN 200 uM) is reported as 16.8 nM, the “apparent KD of MS2 coat protein” value [1] is reported as 10.4 nM and the “apparent KD of MS2 coat protein” value (input ligand: none) is reported as 14.5 nM.
In the case of “CGAUCACAUGAGGAUCACCCAUGUCAGGAUAUCGUCCAUAGGAAACAACCCUUCGAGGCGAGAAGGGACAAUCG [Eternabot (Original) Solution 29] (Eterna round: R97, puzzle: Exclusion 1)”, the “apparent KD of MS2 coat protein” value (input ligand: FMN 200 uM) is reported as 46.9 nM and the “apparent KD of MS2 coat protein” value (input ligand: none) is reported as 31.1 nM.
With “GCGUCGAGUGUGAGGAUAUGCUGGUCAUAAGAUCAGCAGAAGGCACAUGAGGAUCACCCAUGUGAAAACGAUGC [Mat - Exclusion 4 - JL Mod - D69] (puzzle: Brourd's mod of Exclusion 4)” the “apparent KD of MS2 coat protein” value [2] was 73.2 nM, the “apparent KD of MS2 coat protein” value [3] was 16.3 nM and the “apparent KD of MS2 coat protein” value [4] was 20.6 nM.
“AUUAUGUUAGGAUAUGCUUAUGGUGGAUAGUCCAGUAUGGUGUAGAAGGGACAUGAGGAUCACCCAUGUGCUGA [EX4 #33] (Eterna round: R97, puzzle: Exclusion 4)” was tested, and the “apparent KD of MS2 coat protein” value (input ligand: FMN 200 uM) was 35.2 nM and the “apparent KD of MS2 coat protein” value (input ligand: none) was 34 nM.
In the case of “AGAUUACGAGGAUAUCGAGUUUAGUACAUGAGGAUCACCCAUGUUAUCCAGGUCUCGUUUCGAGAAGGCGUGAUUC [LRO-Ex5-08] (puzzle: Exclusion 5)”, the “apparent KD of MS2 coat protein” value [3] is reported as 200 nM.
“AGGUCACAUGAGGAUCACCCAUGUCAGGAUAUCGUCACUGGAGCUGCGGCUCCAGUGACGAGAAGGGACAAUUA [E1/6-A3] (Eterna round: R97, puzzle: Exclusion 1)” was tested, and the “apparent KD of MS2 coat protein” value (input ligand: FMN 200 uM) was 372 nM and the “apparent KD of MS2 coat protein” value (input ligand: none) was 77.2 nM.
For “CGAUGUAACACAGGAUAUCAUCGCAACUGACGUUGAGAAGGGUGACAUGAGGAUCACCCAUGUGAUUUCUCAAUAUUAUACAUC [Prohibition 82 - Jieux - Exclusion NG 1] (Eterna round: R96, puzzle: Exclusion NG 1)”, the “apparent KD of MS2 coat protein” value (input ligand: FMN 200 uM) was 715 nM, the “apparent KD of MS2 coat protein” value [1] was 830 nM and the “apparent KD of MS2 coat protein” value (input ligand: none) was 1390 nM.
With “GGUUGGCGAGGAUAUACAUGAGGAUCACCCAUGUGAGAAUUAAAAGUGAGGAAGAAAAGUAGAAGGCGCUGACG [Mat - Exclusion 3 - Mod of Salish D4] (puzzle: Exclusion 3)” the “apparent KD of MS2 coat protein” value [2] was 304 nM, the “apparent KD of MS2 coat protein” value [3] was 36.1 nM and the “apparent KD of MS2 coat protein” value [4] was 384 nM.
With “UUCGUGCUGCUUUGCUGUACGAGUACAUGAGGAUCACCCAUGUAGGAUAUGGUACGCUUUGCGUGCUAGAAGGAUAUGUGUAGC [salish99_ExNG3_r04_505] (Eterna round: R96, puzzle: Exclusion NG 3)” the “apparent KD of MS2 coat protein” value (input ligand: FMN 200 uM) was 26.7 nM, the “apparent KD of MS2 coat protein” value [1] was 18.9 nM and the “apparent KD of MS2 coat protein” value (input ligand: none) was 25.4 nM.
“GCGUUUUGGUGAGGAUAUCGGCCCGAAACCGGGCAACAUGAGGAUCACCCAUGUACGUGAUCCUGCGAGAAGGCACCGAUUAUA [Bedi] (Eterna round: R96, puzzle: Exclusion NG 2)” was tested, and the “apparent KD of MS2 coat protein” value (input ligand: FMN 200 uM) was 990 nM, the “apparent KD of MS2 coat protein” value [1] was 60.7 nM and the “apparent KD of MS2 coat protein” value (input ligand: none) was 964 nM.
“GCGCACCUACCAAAAGGUAGGCCGACAUGAGGAUCACCCAUGUAGGAUAUCGAUUGCUUUGCAGUCGAGAAGGACAUGAUGCGC [JL ENG3 3.80 Mod 9] (Eterna round: R96, puzzle: Exclusion NG 3)” was tested, and the “apparent KD of MS2 coat protein” value (input ligand: FMN 200 uM) was 35.8 nM, the “apparent KD of MS2 coat protein” value [1] was 11.6 nM and the “apparent KD of MS2 coat protein” value (input ligand: none) was 19 nM.
In the case of “CCUCGACAUGAGGAUCACCCAUGUCAGGAUAUUGUGUCUCGGGUUUUUUACCGUUAGGCAAGAAGGGAUGUGUG [LRO-Excl1-14] (puzzle: Exclusion 1)”, the “apparent KD of MS2 coat protein” value [3] is reported as 19.7 nM.
“GCCGGAGCAGGAUAUCUAAUAUAUCACAUGAGGAUCACCCAUGUCCAGCGAAAGCUGGAGGGAGAAGGGCUCUGGC [Fiskers Ex 5 - 22] (puzzle: Exclusion 5)” was tested, and the “apparent KD of MS2 coat protein” value [2] was 59.7 nM, the “apparent KD of MS2 coat protein” value [3] was 133 nM and the “apparent KD of MS2 coat protein” value [4] was 132 nM.
With “ACCUUACAUGAGGAUCACCCAUGUCAGGAUAUCUCGGACAGCUGAAAACCAGCCGUCCAGAGAAGGGACGAGGA [Tiaza] (puzzle: Exclusion 1)” the “apparent KD of MS2 coat protein” value [3] was 12.8 nM.
With “CCGCUGUGAGGAUAUUAGUAGUAGUCAGAAUAGACUAUUACUGAGAAGGCACAUGAGGAUCACCCAUGUAGCGG [Eli x4 4.25] (Eterna round: R97, puzzle: Exclusion 4)” the “apparent KD of MS2 coat protein” value (input ligand: FMN 200 uM) was 24.8 nM and the “apparent KD of MS2 coat protein” value (input ligand: none) was 28.9 nM.
For “CCUCAGUAAGGAUAUCAGCUUAAGGAGGUGGUAAAGAGAGCUGAGAAGGUACAUGAGGAUCACCCAUGUUAAAA [Zatite] (puzzle: Exclusion 4)”, the “apparent KD of MS2 coat protein” value [2] was 64.4 nM, the “apparent KD of MS2 coat protein” value [3] was 44.9 nM and the “apparent KD of MS2 coat protein” value [4] was 50.2 nM.
In the case of “GGUAGUAUGAGUAGUCCUCAUUGAAGAGAGUGGUAAGAAACAUGAGGAUCACCCAUGUAAGAACAAGCUUUUGCUCA [JR_Sv3TOV2_Sub005] (puzzle: Sensor v3, turn-off variant 2)”, the “apparent KD of MS2 coat protein” value [2] is reported as 191 nM, the “apparent KD of MS2 coat protein” value [3] is reported as 15.9 nM and the “apparent KD of MS2 coat protein” value [4] is reported as 266 nM.
“GAUCGACAUGAGGAUCACCCAUGUCAGGAUAUCUACAUUGAAGCUUCGGCUUCAAUGUAGAGAAGGGACAUAAU [E1/13-B1] (Eterna round: R97, puzzle: Exclusion 1)” was tested, and the “apparent KD of MS2 coat protein” value (input ligand: FMN 200 uM) was 38.6 nM and the “apparent KD of MS2 coat protein” value (input ligand: none) was 39.7 nM.
With “UAGAGACAUGAGGAUCACCCAUGUGAGGAUAUAGAGGAAGAUUGCGAGAGGGAGAGGACUAGAAGGCACAGUGA [JR_Exclu1_Sub034] (puzzle: Exclusion 1)” the “apparent KD of MS2 coat protein” value [2] was 31.4 nM, the “apparent KD of MS2 coat protein” value [3] was 35.2 nM and the “apparent KD of MS2 coat protein” value [4] was 47.5 nM.
For “CAUGAUCUUCGGAUCAUGUACAUGAGGAUCACCCAUGUGACGAGUUACAUGUUUUACAAGCUUUUUGCUCGUCUUAU [Sensor v3 - Turn-off variant 1 - 14] (puzzle: Sensor v3, turn-off variant 1)”, the “apparent KD of MS2 coat protein” value [2] was 40.3 nM, the “apparent KD of MS2 coat protein” value [3] was 99.4 nM and the “apparent KD of MS2 coat protein” value [4] was 47.4 nM.
In the case of “CGAUAAAAGACAGGAUAUGAGGAGAGAGAGAGAUCAGAAGGGUCACAUGAGGAUCACCCAUGUGAGUUCUCGAAAGGAAAGAGG [Prohibition 51 - Jieux - Exclusion NG 1] (Eterna round: R96, puzzle: Exclusion NG 1)”, the “apparent KD of MS2 coat protein” value (input ligand: FMN 200 uM) is reported as 21.4 nM, the “apparent KD of MS2 coat protein” value [1] is reported as 15 nM and the “apparent KD of MS2 coat protein” value (input ligand: none) is reported as 23 nM.
“AGUGCGUAUGUGAGGAUAUGCUGGUCCUUGGAUCAGCAGAAGGCACAUGAGGAUCACCCAUGUGGUGUCGUACA [salish99_Bmod_Ex4_006] (puzzle: Brourd's mod of Exclusion 4)” was tested, and the “apparent KD of MS2 coat protein” value [3] was 320 nM.
For “CUCUGCACGCUGCGGUCCUACAUGAGGAUCACCCAUGUGGUCUGGUGGCGUGGGUCGCCGGACUUGGCUCGUCUUGG [salish99_S_TOV1_R5_047] (Eterna round: R97, puzzle: Sensor, turn-off variant 1)”, the “apparent KD of MS2 coat protein” value (input ligand: FMN 200 uM) was 15.4 nM and the “apparent KD of MS2 coat protein” value (input ligand: none) was 15.8 nM.
“GCGGACUAGAACGUGAGUUCUGAGACAUGAGGAUCACCCAUGUAGGAUAUCGAUUCGUUUCGAAUCGAGAAGGGCAUAGUCCGC [JL denovo 12] (Eterna round: R96, puzzle: Exclusion NG 3)” was tested, and the “apparent KD of MS2 coat protein” value (input ligand: FMN 200 uM) was 21.3 nM, the “apparent KD of MS2 coat protein” value [1] was 14.2 nM and the “apparent KD of MS2 coat protein” value (input ligand: none) was 20.3 nM.
For “AAAAGCAAGUAAAGAUUCUACAUGAGGAUCACCCAUGUGCUCGUCUUAUAAAGUACUAUCACGAAAGUGAUAGUACA [Sensor 3, v1 - 43] (puzzle: Sensor v3, turn-off variant 1)”, the “apparent KD of MS2 coat protein” value [2] was 19.4 nM, the “apparent KD of MS2 coat protein” value [3] was 124 nM and the “apparent KD of MS2 coat protein” value [4] was 17.6 nM.
